The text below walks through data of article PMC5704897 (Molecular cell, 2006).

Holding throughout (experiment): native MS
Assay [1] concerns the target human Cdc37 (human) (UniProt Q16543).
Assay [2] shares this target. The source holds these as a separate data set.
Assay [3] has as its target His6-tagged kinase domain of B-Raf (human) (UniProt P15056).
The target of assay [4] is T1, human Cdc37 (human), Q16543.
T1 chain: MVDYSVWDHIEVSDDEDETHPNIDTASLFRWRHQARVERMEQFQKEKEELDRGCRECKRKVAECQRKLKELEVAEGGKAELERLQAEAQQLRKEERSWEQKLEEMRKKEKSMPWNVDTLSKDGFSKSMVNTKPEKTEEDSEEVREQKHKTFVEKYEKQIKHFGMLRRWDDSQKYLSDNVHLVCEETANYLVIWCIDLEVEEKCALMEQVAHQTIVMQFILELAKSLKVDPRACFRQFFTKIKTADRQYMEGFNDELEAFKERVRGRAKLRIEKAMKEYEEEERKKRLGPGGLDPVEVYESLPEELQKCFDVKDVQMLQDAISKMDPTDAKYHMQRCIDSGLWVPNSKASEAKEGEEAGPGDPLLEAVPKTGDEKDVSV
The settings on record: remark: other sources report otherwise.

For assay [5], the target named is His6-tagged kinase domain of B-Raf (human, UniProt P15056 457-717).

Read-outs that look alike come from different tables or passages of the source.

His6-tagged kinase domain of B-Raf (human), sequence (P15056 457-717): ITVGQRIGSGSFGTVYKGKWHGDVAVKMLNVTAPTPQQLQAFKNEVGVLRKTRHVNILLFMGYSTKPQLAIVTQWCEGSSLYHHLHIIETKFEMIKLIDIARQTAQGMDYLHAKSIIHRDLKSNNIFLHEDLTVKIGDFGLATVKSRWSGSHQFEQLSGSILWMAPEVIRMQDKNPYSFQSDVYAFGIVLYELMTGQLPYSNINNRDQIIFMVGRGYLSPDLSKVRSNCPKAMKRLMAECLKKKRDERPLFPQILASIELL
His6-tagged kinase domain of B-Raf, sequence (P15056 457-717): as above

In the case of “Spodoptera frugiperda Hsp90 homologue (natural protein)”, the stoichiometry N (Hsp90 per Cdc37) in the assay with human Cdc37 (human) [1] and in the assay with human Cdc37 (human) [2] was 2 in each case. The molecule also came in with a stoichiometry N (Hsp90 per B-Raf) in assay [3] of 2.

B1: human Cdc37, Q16543 1-378 (natural protein)
chain: T1 chain
modifications: here or on the partner: phosphoserine at 13 (pSer 13); phosphoserine at 13 (pSer 13)
For B1, the stoichiometry N (Cdc37 chains in the oligomer) in assay [4] came out at 2.

B2: human Cdc37 (natural protein, UniProt Q16543 1-378, looked up)
chain: T1 chain
modifications: phosphoserine at 13 (pSer 13)
For B2, the stoichiometry N (in general, the number of molecules, sites or subunits per partner or assembly) in assay [5] was found to be 1 Cdc37 per B-Raf.
